Reference: US20100081612A1 (GENERAL HOSPITAL, published 2010)
Read-outs that look alike come from different tables or passages of the source. Where no end group is shown, it is not given here. [ ]: non-standard residue; d: D form. Apa = (S)-2-amino-4[(2-amino)pyrimidinyl]methylalanine; Phe(4-guanidino) = N=C(N)Nc1ccc(C[C@H](N)C(=O)O)cc1; Orn = NCCC[C@H](N)C(=O)O

T1: wild-type human PTHR (human, UniProt Q03431 27-593)
T1 construct: whole, on cells; also called PTHR-WT; intact PTHR
T1 sequence (looked up): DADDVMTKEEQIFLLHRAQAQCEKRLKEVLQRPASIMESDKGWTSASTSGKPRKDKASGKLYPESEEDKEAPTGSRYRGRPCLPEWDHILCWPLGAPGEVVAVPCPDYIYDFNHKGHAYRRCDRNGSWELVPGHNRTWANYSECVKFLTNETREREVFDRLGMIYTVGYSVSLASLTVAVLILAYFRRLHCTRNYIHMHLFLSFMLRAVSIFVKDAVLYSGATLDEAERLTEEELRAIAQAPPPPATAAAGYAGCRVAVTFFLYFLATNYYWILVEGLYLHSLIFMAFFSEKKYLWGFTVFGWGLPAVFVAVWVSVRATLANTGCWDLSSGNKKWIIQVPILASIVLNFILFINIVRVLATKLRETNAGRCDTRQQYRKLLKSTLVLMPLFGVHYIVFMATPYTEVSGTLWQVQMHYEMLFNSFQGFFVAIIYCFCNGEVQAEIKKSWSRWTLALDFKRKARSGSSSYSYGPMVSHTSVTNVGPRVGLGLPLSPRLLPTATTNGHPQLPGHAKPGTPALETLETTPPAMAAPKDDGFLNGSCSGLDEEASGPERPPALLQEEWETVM

B1: PTH(1-31)NH2 Arg^20→Orn (peptide)
peptide: SVSEIQLMHNLGKHLNSME[Orn]VEWLRKKLQDV-NH2
modifications: N-terminus assumed
SMILES: CC[C@H](C)[C@H](NC(=O)[C@H](CCC(=O)O)NC(=O)[C@H](CO)NC(=O)[C@@H](NC(=O)[C@@H](N)CO)C(C)C)C(=O)N[C@@H](CCC(N)=O)C(=O)N[C@@H](CC(C)C)C(=O)N[C@@H](CCSC)C(=O)N[C@@H](Cc1c[nH]cn1)C(=O)N[C@@H](CC(N)=O)C(=O)N[C@@H](CC(C)C)C(=O)NCC(=O)N[C@@H](CCCCN)C(=O)N[C@@H](Cc1c[nH]cn1)C(=O)N[C@@H](CC(C)C)C(=O)N[C@@H](CC(N)=O)C(=O)N[C@@H](CO)C(=O)N[C@@H](CCSC)C(=O)N[C@@H](CCC(=O)O)C(=O)N[C@@H](CCCN)C(=O)N[C@H](C(=O)N[C@@H](CCC(=O)O)C(=O)N[C@@H](Cc1c[nH]c2ccccc12)C(=O)N[C@@H](CC(C)C)C(=O)N[C@@H](CCCNC(=N)N)C(=O)N[C@@H](CCCCN)C(=O)N[C@@H](CCCCN)C(=O)N[C@@H](CC(C)C)C(=O)N[C@@H](CCC(N)=O)C(=O)N[C@@H](CC(=O)O)C(=O)N[C@H](C(N)=O)C(C)C)C(C)C
B2: PTH(1-31)NH2 Arg^20→Gph (peptide)
peptide: SVSEIQLMHNLGKHLNSME[Phe(4-guanidino)]VEWLRKKLQDV-NH2
modifications: N-terminus assumed
SMILES: CC[C@H](C)[C@H](NC(=O)[C@H](CCC(=O)O)NC(=O)[C@H](CO)NC(=O)[C@@H](NC(=O)[C@@H](N)CO)C(C)C)C(=O)N[C@@H](CCC(N)=O)C(=O)N[C@@H](CC(C)C)C(=O)N[C@@H](CCSC)C(=O)N[C@@H](Cc1c[nH]cn1)C(=O)N[C@@H](CC(N)=O)C(=O)N[C@@H](CC(C)C)C(=O)NCC(=O)N[C@@H](CCCCN)C(=O)N[C@@H](Cc1c[nH]cn1)C(=O)N[C@@H](CC(C)C)C(=O)N[C@@H](CC(N)=O)C(=O)N[C@@H](CO)C(=O)N[C@@H](CCSC)C(=O)N[C@@H](CCC(=O)O)C(=O)N[C@@H](Cc1ccc(NC(=N)N)cc1)C(=O)N[C@H](C(=O)N[C@@H](CCC(=O)O)C(=O)N[C@@H](Cc1c[nH]c2ccccc12)C(=O)N[C@@H](CC(C)C)C(=O)N[C@@H](CCCNC(=N)N)C(=O)N[C@@H](CCCCN)C(=O)N[C@@H](CCCCN)C(=O)N[C@@H](CC(C)C)C(=O)N[C@@H](CCC(N)=O)C(=O)N[C@@H](CC(=O)O)C(=O)N[C@H](C(N)=O)C(C)C)C(C)C

Key:
PTHR-delNt (human) [1] = biological target: PTHR-delNt (human) (UniProt Q03431); experiment: competition binding, COS-7 membranes, 125I-[Aib1,3,M]PTH(1-15) tracer
wild-type human PTHR [2] = biological target: T1, wild-type human PTHR; experiment: competition binding, HKRK-B7 cells, 125I-PTH(1-34) tracer
Method in brief: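 Intact HKRK-B7 cells stably expressing hPTHR incubated 4 h at 15° C with ¹²⁵I-PTH(1-34) tracer and unlabeled peptide (3×10⁻⁹ to 1×10⁻⁵ M). Nonspecific binding defined with 1×10⁻⁶ M PTH(1-31)NH₂. Bound activity counted after lysis and expressed as % specific binding without competitor; values in nM, mean ± s.e.m.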

PTHR-delNt (human) [3] = biological target: PTHR-delNt (human) (UniProt Q03431); experiment: competition binding, COS-7 membranes, 125I-[Aib1,3,M]PTH(1-15) tracer; remark: listed apart in the source
wild-type human PTHR [4] = biological target: T1, wild-type human PTHR; experiment: competition binding, HKRK-B7 cells, 125I-PTH(1-34) tracer

Binder	fold reduction in binding affinity vs [Ala^1,Arg^19]PTH(1-31)NH2 (PTHR-delNt (human) [1]) [fold]	IC50 (wild-type human PTHR [2]) [µM]	IC50 (PTHR-delNt (human) [3]) [µM]	fold reduction in binding affinity vs [Ala^1,Arg^19]PTH(1-31)NH2 (PTHR-delNt (human) [3]) [fold]	IC50 (wild-type human PTHR [4]) [µM]	fold difference of IC50 from PTH(1-31)NH2 (PTHR-delNt (human) [3]) [fold]
AVSEIQLMHNLGKHLNSMERVEWLRKKLQDV-NH2 [[Ala^1,Arg^19]hPTH(1-31)NH2 Arg^19→Glu]	90	0.125	18.9	50		
B1			5.53		> 10	< 4
SVSEIQLMHNLGKHLNSME[Apa]VEWLRKKLQDV-NH2 [PTH(1-31)NH2 Arg^20→Apa]			5.74		> 10	< 4
B2			2.05		> 10	< 4
